Measurements reported in publication PMC10613257.

Key:
[1] = molecular target: insulin-like growth factor binding protein 5 (IGFBP5), full length, wild type (UniProt P24593); experiment: fluorescence polarisation; FAM-labelled FL IGFBP5 at 5 nM; enzyme serially diluted from 10 µM to 0.5 nM; 1X PBS; 384-well plates; catalytically inactive enzymes
[2] = molecular target: insulin-like growth factor binding protein 5 (IGFBP5), full length, wild type (UniProt P24593); experiment: FP; settings: enzyme

Chain of insulin-like growth factor binding protein 5 (IGFBP5), full length, wild type (P24593 21-272): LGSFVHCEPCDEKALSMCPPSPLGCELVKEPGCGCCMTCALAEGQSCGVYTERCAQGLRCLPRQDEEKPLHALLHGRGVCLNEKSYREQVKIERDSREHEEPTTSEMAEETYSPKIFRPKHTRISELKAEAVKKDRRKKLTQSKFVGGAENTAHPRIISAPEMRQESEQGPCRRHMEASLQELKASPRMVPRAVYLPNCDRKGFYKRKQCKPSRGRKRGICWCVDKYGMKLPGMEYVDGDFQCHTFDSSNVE

Row | fold weaker binding than PAPP-A E483A [1] [fold] | Kd [2] [µM] | Substance
1 | 11 |  | PAPP-A2 E500Q (catalytically inactive) (from UniProt Q9BXP8 235-1791) (enzyme)
2 |  | 2.64 | PAPP-A2 E500Q (catalytically inactive) (from UniProt Q9BXP8 235-1791)
